The results in this text go back to PMC11046646, “Tight-packing of large pilin subunits provides distinct structural and mechanical properties for the Myxococcus xanthus type IVa pilus” (Proceedings of the National Academy of Sciences of the …, 2024).

The data set concerns the molecule itself. The data set can be described thus: cryo-EM structure; T4aP^Mx filaments purified from the hyperpiliated ΔpilT strain; helical reconstruction, twist 100.7°, rise 10 Å per subunit, 3.0 Å.

B1: major pilin PilA of Myxococcus xanthus (mature PilA, MXAN_5783) (natural protein, UniProt Q59589 13-220, looked up)
chain: FTLIELMIVVAIIGILAAIAIPNFIKFQARSKQSEAKTNLKALYTAQKSFFSEKDRYSDFANEIGFAPERGNRYGYRVSAAAGDCEVRNAADLPVPAAGVPCISNDSFRFGANSAIDDPTPVVARFVPQGAAGWNTTLGVQPTIADCPNCNFFAGARGNADNEATFDDWVIAGFEGSGQVGPCSEAGNVASGTPYNTRNDVACDGAAQ
notes: PilA, major type IVa pilin of Myxococcus xanthus, MXAN_5783; mature pilin of 208 aa after removal of the type III signal peptide by PilD; numbers count on: the mature protein; Assembled as the T4aP filament of thousands of copies; Disulfide bridges C95/C102 and C183/C203; the authors speculate that surface-exposed C150 is post-translationally modified; also called PilA^WT; Mx PilA; source: …
B1: the binding result is on record as “binds”.
